# Reference: article PMC5852006, “Microvillar and ciliary defects in zebrafish lacking an actin-binding bioactive peptide amidating enzyme” (Scientific Reports, 2018)
# Molecular target: Filamentous actin, pre-formed actin filaments derived from rabbit skeletal muscle (rabbit, UniProt P68135 1-377)
# Assay: co-sedimentation; F-actin spin-down; constant 0.5 μM F-actin with varying concentrations of PAM-CD; PAM-CD in supernatants and pellets by electrophoretic analysis; Scatchard analysis of three experiments
# Conditions: both partners purified
binder,measurement,value
"Peptidylglycine α-amidating monooxygenase cytosolic C-terminal domain, recombinant rat PAM(898–976) (domain or fragment, Peptidylglycine alpha-amidating monooxygenase (PAM), rat, cytosolic C-terminal domain, residues 898-976; no tag is mentioned; also called PAM-CD; rat PAM-CD; source: E. coli BL21(DE3), pET-11CD vector, purified) FGDHDRKLESSSGRVLGRFRGKGSGGLNLGNFFASRKGYSRKGFDRVSTEGSDQEKDEDDGTESEEEYSAPLPKPAPSS",Kd,600 nM
